Experimental data reported in patent publication US20220323583A1, “Pharmaceutical Formulations of Bi-Specific Diabodies and Use of the Same” (MacroGenics, Inc., priority 2019, published 2022).

Tests used:
[1] = Capillary isoelectric focusing (cIEF), charge variants; format: physicochemical; settings: for cIEF % AV (acidic variants) / cIEF % BV (basic variants) / cIEF % Main Peak: 0.1 mg/mL solution, Stabilizer 2
Experimental: cIEF analysis was performed to characterize drug product charge variants. The configuration included a iCE System with Alcott 720NV Autosampler. Samples were prepared to a final concentration of 0.1 mg/mL and centrifuged at 5±3° C. for 40 minutes prior to analysis.

[2] = target: Human CD3ε/δ (Homo sapiens, UniProt P07766); assay: Binding of DART-A to CD3 (ka, kd, KD)
[3] = test system: TF-1; assay: Redirected killing of target cell line; format: cell-based
[4] = target: T1, recombinant Interleukin 3 Receptor (rhIL3-R) (Homo sapiens, UniProt P26951); assay: CD123 binding ELISA (relative potency); settings: Relative Potency vs DART-A reference standard, 1250 ng/mL dosing solution, Stabilizer 2
T1 construct: The soluble IL3R was coated on the surface of an ELISA plate
T1 sequence (P26951 19-305 limits assumed): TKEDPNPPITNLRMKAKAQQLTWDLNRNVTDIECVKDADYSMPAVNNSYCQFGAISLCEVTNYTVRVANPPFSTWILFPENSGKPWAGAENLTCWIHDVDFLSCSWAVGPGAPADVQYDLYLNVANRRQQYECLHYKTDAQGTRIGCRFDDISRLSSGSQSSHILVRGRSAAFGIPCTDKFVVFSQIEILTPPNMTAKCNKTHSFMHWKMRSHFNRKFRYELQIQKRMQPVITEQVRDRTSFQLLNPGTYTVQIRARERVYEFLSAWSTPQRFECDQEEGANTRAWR
From the text: The soluble IL3R was coated on the surface of an ELISA plate. […] Quantification of bound probe antibody was achieved by addition of a colorimetric AP substrate (AP-Yellow 1 Component Substrate). Oxidation of AP-Yellow by AP yields a colored product that can be read at 405±10 nm. The assay was quantified by the intensity of color, measured using a spectrophotometer set to an optimal wavelength of 405±10 nm. Data were fitted to a four-parameter model with the following variable constraints: the maximum, minimum and slope of each dose response curve is set to be shared between all dose response curves on the plate; the EC50 was determined independently for each curve.

[5] = test system: THP-1; assay: Redirected killing of target cell line; format: cell-based
[6] = test system: A498; assay: Redirected killing of target cell line; format: cell-based; settings: A498 (CD123 negative)
[7] = test system: RS4-11; assay: Redirected killing of target cell line; format: cell-based
[8] = test system: MOLM13 tumors; assay: Human T cells and Molm13 tumor cells injected subcutaneously into NSG mice; format: in vivo, NOD/SCID gamma (NSG) knockout mice
Experimental: A dose of 0.004 mg/kg and higher was active in the MOLM13 model.

[9] = SE-HPLC (protein aggregation: % main peak, % HMW, % LMW); format: physicochemical; settings: for FLR SE-HPLC % HMW / FLR SE-HPLC % LMW / FLR SE-HPLC % Main Peak: 0.1 mg/mL solution, Stabilizer 2
Experimental: FLR SE-HPLC analysis was performed to measure protein purity, monomer purity and protein stability. The FLR SE-HPLC configuration included a fluorescence (FLR) detector (λX=280 nm, λE=340 nm), a mobile phase composition of 350 mM Mobile Phase (175 mMNaH2PO4, 175 mMNa2SO, pH 6.3) and a TosoBio TSK G3000SWXL size exclusion column. Samples were diluted to 0.1 mg/mL and stored at 5±3° C. for 24 to 96 hours prior to analysis. Eight μg of protein (or 100 μL is sample concentration was below 0.1 mg/mL) was injected for each 30-minute run. HMW and LMW species and monomer peaks were monitored.

[10] = target: T2, soluble recombinant human IL-3 receptor alpha (rhIL3Rα) (Homo sapiens, UniProt P26951); assay: ELISA (rhIL3Rα) DART-A quantitation assay (concentration, protein recovery); settings: for Actual Concentration: target 20 ng/mL
T2 construct: soluble recombinant human IL-3 receptor alpha (rhIL3Rα)
T2 sequence (P26951 19-305 limits assumed): T1 sequence (P26951 19-305 limits assumed)
Experimental: In brief, the assay plate was coated with soluble recombinant human IL-3 receptor alpha (rhIL3Rα) overnight. […] After addition of MSD Read Buffer, the plate was inserted into the Sector Imager 2400 Plate Reader. When a voltage was applied to the plate electrodes, the bound Sulfo-TAG label produces an ECL signal, which was captured by the plate reader. A quantitative measure of the ECL signal emitted by each well was recorded, and the ECL counts emitted by the standard calibrators were used to generate a standard curve using a 4-parameter logistic (4PL) fit.

[11] = test system: CD123+ cells; assay: DART-A infusion in cynomolgus monkeys; format: in vivo
From the text: Upregulation of granzyme B and perforin levels in both CD8 and CD4 T cells was observed.
A decrease in circulating T cells also occurred, but recovered to baseline before the subsequent infusion in monkeys on the 4-day dose schedule, consistent with DART-A-mediated mobilization.

[12] = 0.1 mg/mL in Stabilizer 2 dosing solution, 72-hour RT storage and administration
[13] = Post Infusion (Infusion Time = 96 Hrs)
[14] = Post Storage (Time = 72 Hrs), room temperature

Chain of Human CD3ε/δ (P07766 23-126 limits assumed): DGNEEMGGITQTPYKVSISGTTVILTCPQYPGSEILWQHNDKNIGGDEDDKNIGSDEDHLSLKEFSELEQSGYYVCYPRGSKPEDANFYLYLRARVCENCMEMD
Chain of Human CD3ε/δ (P04234 22-105 partner limits assumed): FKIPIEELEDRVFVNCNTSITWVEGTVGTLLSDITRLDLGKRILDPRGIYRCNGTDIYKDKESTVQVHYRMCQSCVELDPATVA

B1: DART-A: sequence-optimized CD123×CD3 bispecific diabody; chains SEQ ID NO:42 and SEQ ID NO:44 covalently bonded by a disulfide bond (protein)
chain 1: QAVVTQEPSLTVSPGGTVTLTCRSSTGAVTTSNYANWVQQKPGQAPRGLIGGTNKRAPWTPARFSGSLLGGKAALTITGAQAEDEADYYCALWYSNLWVFGGGTKLTVLGGGGSGGGGEVQLVQSGAELKKPGASVKVSCKASGYTFTDYYMKWVRQAPGQGLEWIGDIIPSNGATFYNQKFKGRVTITVDKSTSTAYMELSSLRSEDTAVYYCARSHLLRASWFAYWGQGTLVTVSSGGCGGGEVAALEKEVAALEKEVAALEKEVAALEK
chain 2: DFVMTQSPDSLAVSLGERVTMSCKSSQSLLNSGNQKNYLTWYQQKPGQPPKLLIYWASTRESGVPDRFSGSGSGTDFTLTISSLQAEDVAVYYCQNDYSYPYTFGQGTKLEIKGGGSGGGGEVQLVESGGGLVQPGGSLRLSCAASGFTFSTYAMNWVRQAPGKGLEWVGRIRSKYNNYATYYADSVKDRFTISRDDSKNSLYLQMNSLKTEDTAVYYCVRHGNFGNSYVSWFAYWGQGTLVTVSSGGCGGGKVAALKEKVAALKEKVAALKEKVAALKE
modifications: interchain disulfide bond; First Polypeptide Chain of DART-A; Second Polypeptide Chain of DART-A
- charge heterogeneity by cIEF [1, 12]: minor changes within the variability of the analytical method
- cIEF % AV (acidic variants) [1, 13]: 31.4%
- cIEF % BV (basic variants) [1, 13]: 3.4%
- cIEF % Main Peak [1, 13]: 65.2%
- cIEF % AV (acidic variants) [1, 14]: 29.1%
- cIEF % BV (basic variants) [1, 14]: 3.9%
- cIEF % Main Peak [1, 14]: 67.0%
- cIEF % AV (acidic variants) ([1]; T = 0 Hrs): 28.3%
- cIEF % BV (basic variants) ([1]; T = 0 Hrs): 4.4%
- cIEF % Main Peak ([1]; T = 0 Hrs): 67.3%
- ka (± SD) [2]: 5.7 (± 0.6) × 10^5 M^−1s^−1
- kd (± SD) [2]: 5.0 (± 0.9) × 10^−3 s^−1
- Kd ([2]; read-out: KD (± SD)): 9 ± 2.3 nM
- Max % Killing [3]: 46%
- % Potency, CD123 binding ([4]; Post Infusion (Infusion Time = 48 Hrs)): 123%
- % Potency, CD123 binding ([4]; Post Storage (T = 72 Hrs), room temperature): 140%
- % Potency, CD123 binding ([4]; T = 0): 146%
- Max % Killing [5]: 40%
- Max % Killing [6]: No activity
- EC50, redirected killing ([6]; E:T = 10:1): No activity
- Max % Killing [7]: 60%
- MOLM13 tumor growth ([8]; 0.16, 0.5, 0.2, 0.1, 0.02 and 0.004 mg/kg dose levels): significantly inhibited
- dose active in the MOLM13 model ([8]; mouse, in vivo): ≥ 4 µg/kg
- SE-HPLC species [9, 12]: no changes in the LMW and LMW
- FLR SE-HPLC % HMW [9, 13]: 0.9%
- FLR SE-HPLC % LMW [9, 13]: 0.9%
- FLR SE-HPLC % Main Peak [9, 13]: 98.2%
- FLR SE-HPLC % HMW [9, 14]: 0.8%
- FLR SE-HPLC % LMW [9, 14]: 0.9%
- FLR SE-HPLC % Main Peak [9, 14]: 98.4%
- FLR SE-HPLC % HMW ([9]; T = 0 Hrs): 0.8%
- FLR SE-HPLC % LMW ([9]; T = 0 Hrs): 0.9%
- FLR SE-HPLC % Main Peak ([9]; T = 0 Hrs): 98.4%
- Actual Concentration ([10]; Final PS80 0.1 mg/mL, Post 24 Hr Storage and 96 Hr Admin): 19.3 ng/mL
- Actual Concentration ([10]; Final PS80 0.1 mg/mL, T0): 19.9 ng/mL
- Actual Concentration ([10]; Final PS80 0.12 mg/mL, Post 24 Hr Storage and 96 Hr Admin): 20.6 ng/mL
- Actual Concentration ([10]; Final PS80 0.12 mg/mL, T0): 21.6 ng/mL
- DART-A Concentration derived from quantitation assay ([10]; Study 1, Stabilizer 1, dual-pump infusion RT, High (5000 ng/mL), Expected or Control (T0)): 313.7 ng/mL
- DART-A Concentration derived from quantitation assay ([10]; Study 1, Stabilizer 1, dual-pump infusion RT, High (5000 ng/mL), T = 24 hours): 235.2 ng/mL
- DART-A Concentration derived from quantitation assay ([10]; Study 1, Stabilizer 1, dual-pump infusion RT, High (5000 ng/mL), T = 48 hours): 294.3 ng/mL
- DART-A Concentration derived from quantitation assay ([10]; Study 1, Stabilizer 1, dual-pump infusion RT, High (5000 ng/mL), T = 72 hours): 254.4 ng/mL
- DART-A Concentration derived from quantitation assay ([10]; Study 1, Stabilizer 1, dual-pump infusion RT, Low (100 ng/mL), Expected or Control (T0)): 10.6 ng/mL
- DART-A Concentration derived from quantitation assay ([10]; Study 1, Stabilizer 1, dual-pump infusion RT, Low (100 ng/mL), T = 24 hours): 6.7 ng/mL
- DART-A Concentration derived from quantitation assay ([10]; Study 1, Stabilizer 1, dual-pump infusion RT, Low (100 ng/mL), T = 48 hours): 12.9 ng/mL
- DART-A Concentration derived from quantitation assay ([10]; Study 1, Stabilizer 1, dual-pump infusion RT, Low (100 ng/mL), T = 72 hours): 11.0 ng/mL
- concentration as prepared, DART-A quantitation assay ([10]; Study 1, high concentration (target 5000 ng/mL)): 5067.5 ng/mL
- concentration as prepared, DART-A quantitation assay ([10]; Study 1, low concentration (target 100 ng/mL)): 116.7 ng/mL
- DART-A Concentration derived from quantitation assay ([10]; Study 2, Stabilizer 1, cassette 25° C., 100 rpm, High (5000 ng/mL), T = 0): 5398.7 ng/mL
- DART-A Concentration derived from quantitation assay ([10]; Study 2, Stabilizer 1, cassette 25° C., 100 rpm, High (5000 ng/mL), T = 24 hours): 5241.2 ng/mL
- DART-A Concentration derived from quantitation assay ([10]; Study 2, Stabilizer 1, cassette 25° C., 100 rpm, High (5000 ng/mL), T = 48 hours): 4967.5 ng/mL
- DART-A Concentration derived from quantitation assay ([10]; Study 2, Stabilizer 1, cassette 25° C., 100 rpm, High (5000 ng/mL), T = 72 hours): 4916.7 ng/mL
- DART-A Concentration derived from quantitation assay ([10]; Study 2, Stabilizer 1, cassette 25° C., 100 rpm, Low (100 ng/mL), T = 0): 110.1 ng/mL
- DART-A Concentration derived from quantitation assay ([10]; Study 2, Stabilizer 1, cassette 25° C., 100 rpm, Low (100 ng/mL), T = 24 hours): 115.5 ng/mL
- DART-A Concentration derived from quantitation assay ([10]; Study 2, Stabilizer 1, cassette 25° C., 100 rpm, Low (100 ng/mL), T = 48 hours): 103.8 ng/mL
- DART-A Concentration derived from quantitation assay ([10]; Study 2, Stabilizer 1, cassette 25° C., 100 rpm, Low (100 ng/mL), T = 72 hours): 106.2 ng/mL
- DART-A Concentration derived from quantitation assay ([10]; Study 3, Stabilizer 1, cassette 37° C., 100 rpm, Low (100 ng/mL), T = 0): 111.4 ng/mL
- DART-A Concentration derived from quantitation assay ([10]; Study 3, Stabilizer 1, cassette 37° C., 100 rpm, Low (100 ng/mL), T = 72 hours): 99.4 ng/mL
- DART-A Concentration derived from quantitation assay ([10]; Study 3, Stabilizer 1, cassette 37° C., 100 rpm, second group, target concentration not given, T = 0): 5682.9 ng/mL
- DART-A Concentration derived from quantitation assay ([10]; Study 3, Stabilizer 1, cassette 37° C., 100 rpm, second group, target concentration not given, T = 72 hours): 4661.6 ng/mL
- levels of cytokines interferon-gamma, TNF-alpha, IL-6, IL-5, IL-4 and IL-2 ([11]; DART-A-treated animals): No elevation
- pDC depletion after infusion ([11]; as little as 10 ng/kg DART-A): depleted as early as 4 days post infusion
- circulating CD123+ cells ([11]; infused 4 or 7 days a week, weekly escalating doses): depletion of circulating CD123+ cells 72 h after treatment initiation
- Toxicity ([11]; infused 4 or 7 days a week, weekly escalating doses, 4 weeks): limited to a minimal transient release of cytokines
